In this assay the test system is Hela cells. Nature of the assay: Flow cytometry binding to Hela cells. It counts as cell-based. The note with it: transfection supernatants, FIG. 6. On the procedure:
The binding activity of the antibodies to Hela cells (ATCC@ CCL-2, provided by COBIOER) and to RPTEC/TERT1 cells (ATCC@ CRL-4031, provided by COBIOER) was tested by flow cytometry using the transfection supernatants. Briefly, target cells were digested with 0.02% EDTA-2Na, centrifuged at 1500 rpm for 3 mins, and resuspended with PBS. After counting, the cells were added to a 1.5 ml centrifuge tube with 1×10^6 cells per tube, centrifuged at 1500 rpm for 5 minutes, and the supernatant was discarded. Then all the operations were carried out on an ice bath. 100 μL of transfection supernatant was added to each 1.5 ml centrifuge tube. Blank cells, blank cells plus secondary antibody, medium and HEK293 supernatant were set up as the controls. The reaction was performed on an ice bath for 1 hour. Then the cells were pelleted and washed twice with PBS. The secondary antibody, goat anti-Human IgG (PE, abcam, ab98596), was diluted (1:200) and added using 100 μL per tube. The reaction was performed on an ice bath for 1 hour in the dark. The cells were pelleted again and washed twice with PBS, resuspended in 300 μL PBS, and FL2 fluorescence readings were measured by cytometry. The results were analyzed by FlowJo™10 software.
Anti-FOLR1 antibody binding to Hela and RPTEC/TERT1 cells was tested by FACS. The study was carried out as described above. […]
A general note: In flow cytometry, cells or beads pass a laser one at a time.

B1: F40: Anti-FOLR1 antibody clone: "Clone F40 has a different HCDRs and LCDRs, and with different HFR and LFR" (antibody, V domains shown)
VH: EVQLLESGGGVVQPGRSLRLSCAASGFTFSSYAMHWVRQAPGKGLEWVAVISYDGSNKYYADSVKGRFIISRDNSKNTVYLQMNSLRAEDTAVYYCARPTYVFTYTGSSFDYWGQGTQVTVSS
VL: DIQVTQSPSSLSASLGDTVSITCRASRGLTDSVAWYQQKPGQAPKLLIYAASTLQSGVPSRFGGSGSGSYFTLTITSLQPEDVATYYCQNYKSAPWTFGQGTKVEIK
In the case of B1, the Hela cell binding entry is given as “weakly positive”.

(Values after US20240207429A1, “LINKERS, DRUG LINKERS AND CONJUGATES THEREOF AND METHODS OF USING THE SAME” (ProfoundBio US Co., priority 2021, published 2024).)
